Test results from US10967068B2, “Stability-modulating linkers for use with antibody drug conjugates” (priority 2014, dated 2021).
*1 amine or outer side, *2 acyl side, *3 side chain or, on linkers, in order; H or OH if unused. Where a SMILES comes first, the peptide text is derived from it. [ ]: non-standard residue; d: D form. The star is where a group is joined. Dolaproine = CO[C@@H]([C@@H]1CCCN1)[C@@H](C)C(=O)O; Acetyl(2-(4-imidazolyl)) = O=C(Cc1c[nH]cn1)*; Dil = CC[C@H](C)[C@H](NC)[C@@H](CC(=O)O)OC; Imidazole4carbonyl = O=C(c1cnc[nH]1)*; PABC = O=C(OCc1ccc(N[*:1])cc1)[*:2]; Doe = c1ccc(C[C@H](N*)c2nccs2)cc1; Cit = NC(=O)NCCC[C@H](N)C(=O)O; Isobutyryl = CC(C)C(=O)*; PhAc = O=C(Cc1ccccc1)*; Me2Gly = CN(C)CC(=O)*; Aib = CC(C)(N)C(=O)O; CO = O=C([*:1])[*:2]; Piv = CC(C)(C)C(=O)*; Glycolyl = O=C(CO)*; Sar = CNCC(=O)O

Assay: In Vitro Stability Assay—Mouse Plasma
Assay type: in vitro ADME
Settings: for Conjugate stability (%): % DAR remaining after plasma 3 or 4.5 days; for DAR: before plasma incubation

| SMILES | DAR after plasma incubation for 3 to 4.5 days (attachment position L11B) | Conjugate stability (%) (attachment position L11B) | DAR (attachment position L11B) | DAR after plasma incubation for 3 to 4.5 days (attachment position H16) | Conjugate stability (%) (attachment position H16) | DAR (attachment position H16) |
| --- | --- | --- | --- | --- | --- | --- |
| CC[C@H](C)[C@@H]([C@@H](CC(=O)N1CCC[C@H]1[C@H](OC)[C@@H](C)C(=O)N[C@@H](Cc1ccccc1)c1nccs1)OC)N(C)C(=O)[C@@H](NC(=O)C(C)(C)NC(=O)OCc1ccc(NC(=O)[C@H](CCCNC(N)=O)NC(=O)[C@@H](NC(=O)[C@H](CCCCN)NC(=O)C(C)(C)C)C(C)C)cc1)C(C)C [Example 2, N˜2˜-(2,2-Dimethylpropanoyl)-L-lysyl-L-valyl-N-{4-[(8S,11S,12R)-11-[(2S)-butan-2-yl]-12-(2-{(2S)-2-[(1R,2R)-1-methoxy-2-methyl-3-oxo-3-{[(1S)-2-phenyl-1-(1,3-thiazol-2-yl)ethyl]amino}propyl]pyrrolidin-1-yl}-2-oxoethyl)-5,5,10-trimethyl-3,6,9-trioxo-8-(propan-2-yl)-2,13-dioxa-4,7,10-triazatetradec-1-yl]phenyl}-N˜5˜-carbamoyl-L-ornithinamide] (Piv-KV[Cit][PABC][Aib]V[Dil][Dolaproine]-Doe) | 0 | 0% | 1.54 |  |  |  |
| CC[C@H](C)[C@@H]([C@@H](CC(=O)N1CCC[C@H]1[C@H](OC)[C@@H](C)C(=O)N[C@@H](Cc1ccccc1)c1nccs1)OC)N(C)C(=O)[C@@H](NC(=O)C(C)(C)NC(=O)OCc1ccc(NC(=O)[C@H](CCCNC(N)=O)NC(=O)[C@@H](NC(=O)[C@H](CCCCN)NC(=O)Cc2ccccc2)C(C)C)cc1)C(C)C [Example 3, N˜2˜-(Phenylacetyl)-L-lysyl-L-valyl-N-{4-[(8S,11S,12R)-11-[(2S)-butan-2-yl]-12-(2-{(2S)-2-[(1R,2R)-1-methoxy-2-methyl-3-oxo-3-{[(1S)-2-phenyl-1-(1,3-thiazol-2-yl)ethyl]amino}propyl]pyrrolidin-1-yl}-2-oxoethyl)-5,5,10-trimethyl-3,6,9-trioxo-8-(propan-2-yl)-2,13-dioxa-4,7,10-triazatetradec-1-yl]phenyl}-N˜5˜-carbamoyl-L-ornithinamide] (PhAc-KV[Cit][PABC][Aib]V[Dil][Dolaproine]-Doe) | 0 | 0% | 1.66 |  |  |  |
| CC[C@H](C)[C@@H]([C@@H](CC(=O)N1CCC[C@H]1[C@H](OC)[C@@H](C)C(=O)N[C@@H](Cc1ccccc1)c1nccs1)OC)N(C)C(=O)[C@@H](NC(=O)C(C)(C)NC(=O)OCc1ccc(NC(=O)[C@H](CCCNC(N)=O)NC(=O)[C@@H](NC(=O)[C@H](CCCCN)NC(=O)c2cnc[nH]2)C(C)C)cc1)C(C)C [Example 4, N˜2˜-(1H-Imidazol-5-ylcarbonyl)-L-lysyl-L-valyl-N-{4-[(8S,11S,12R)-11-[(2S)-butan-2-yl]-12-(2-{(2S)-2-[(1R,2R)-1-methoxy-2-methyl-3-oxo-3-{[(1S)-2-phenyl-1-(1,3-thiazol-2-yl)ethyl]amino}propyl]pyrrolidin-1-yl}-2-oxoethyl)-5,5,10-trimethyl-3,6,9-trioxo-8-(propan-2-yl)-2,13-dioxa-4,7,10-triazatetradec-1-yl]phenyl}-N˜5˜-carbamoyl-L-ornithinamide] (Imidazole4carbonyl-KV[Cit][PABC][Aib]V[Dil][Dolaproine]-Doe) |  |  |  | 1.89 | 100% | 1.84 |
| CC[C@H](C)[C@@H]([C@@H](CC(=O)N1CCC[C@H]1[C@H](OC)[C@@H](C)C(=O)N[C@@H](Cc1ccccc1)c1nccs1)OC)N(C)C(=O)[C@@H](NC(=O)C(C)(C)NC(=O)OCc1ccc(NC(=O)[C@H](CCCNC(N)=O)NC(=O)[C@@H](NC(=O)[C@H](CCCCN)NC(=O)Cc2cnc[nH]2)C(C)C)cc1)C(C)C [Example 5, N˜2˜-(1H-Imidazol-5-ylacetyl)-L-lysyl-L-valyl-N-{4-[(8S,11S,12R)-11-[(2S)-butan-2-yl]-12-(2-{(2S)-2-[(1R,2R)-1-methoxy-2-methyl-3-oxo-3-{[(1S)-2-phenyl-1-(1,3-thiazol-2-yl)ethyl]amino}propyl]pyrrolidin-1-yl}-2-oxoethyl)-5,5,10-trimethyl-3,6,9-trioxo-8-(propan-2-yl)-2,13-dioxa-4,7,10-triazatetradec-1-yl]phenyl}-N˜5˜-carbamoyl-L-ornithinamide] ({Acetyl(2-(4-imidazolyl))}-KV[Cit][PABC][Aib]V[Dil][Dolaproine]-Doe) |  |  |  | 2.0 | 100% | 1.96 |
| CC[C@H](C)[C@@H]([C@@H](CC(=O)N1CCC[C@H]1[C@H](OC)[C@@H](C)C(=O)N[C@@H](Cc1ccccc1)c1nccs1)OC)N(C)C(=O)[C@@H](NC(=O)C(C)(C)NC(=O)OCc1ccc(NC(=O)[C@H](CCCNC(N)=O)NC(=O)[C@@H](NC(=O)[C@H](CCCCN)NC(=O)C(C)C)C(C)C)cc1)C(C)C [Example 7, N˜2˜-(2-Methylpropanoyl)-L-lysyl-L-valyl-N-{4-[(8S,11S,12R)-11-[(2S)-butan-2-yl]-12-(2-{(2S)-2-[(1R,2R)-1-methoxy-2-methyl-3-oxo-3-{[(1S)-2-phenyl-1-(1,3-thiazol-2-yl)ethyl]amino}propyl]pyrrolidin-1-yl}-2-oxoethyl)-5,5,10-trimethyl-3,6,9-trioxo-8-(propan-2-yl)-2,13-dioxa-4,7,10-triazatetradec-1-yl]phenyl}-N˜5˜-carbamoyl-L-ornithinamide] (Isobutyryl-KV[Cit][PABC][Aib]V[Dil][Dolaproine]-Doe) | 0 | 0% | 1.51 |  |  |  |
| CC[C@H](C)[C@@H]([C@@H](CC(=O)N1CCC[C@H]1[C@H](OC)[C@@H](C)C(=O)N[C@@H](Cc1ccccc1)c1nccs1)OC)N(C)C(=O)[C@@H](NC(=O)C(C)(C)NC(=O)OCc1ccc(NC(=O)[C@H](CCCNC(N)=O)NC(=O)[C@@H](NC(=O)[C@H](CCCCN)NC(=O)CO)C(C)C)cc1)C(C)C [Example 25, N˜2˜-(hydroxyacetyl)-L-lysylvalyl-N-{4-[(8S,11S,12R)-11-[(2S)-butan-2-yl]-12-(2-{(2S)-2-[(1R,2R)-1-methoxy-2-methyl-3-oxo-3-{[(1S)-2-phenyl-1-(1,3-thiazol-2-yl)ethyl]amino}propyl]pyrrolidin-1-yl}-2-oxoethyl)-5,5,10-trimethyl-3,6,9-trioxo-8-(propan-2-yl)-2,13-dioxa-4,7,10-triazatetradec-1-yl]phenyl}-N˜5˜-carbamoyl-L-ornithinamide] (Glycolyl-KV[Cit][PABC][Aib]V[Dil][Dolaproine]-Doe) |  | 84% | 1.91 |  |  |  |
| CC[C@H](C)[C@@H]([C@@H](CC(=O)N1CCC[C@H]1[C@H](OC)[C@@H](C)C(=O)N[C@@H](Cc1ccccc1)c1nccs1)OC)N(C)C(=O)[C@@H](NC(=O)C(C)(C)NC(=O)OCc1ccc(NC(=O)[C@H](CCCNC(N)=O)NC(=O)[C@@H](NC(=O)[C@H](CCCCN)NC(=O)NC)C(C)C)cc1)C(C)C [Example 26, N˜2˜-(methylcarbamoyl)-L-lysylvalyl-N-{4-[(8S,11S,12R)-11-[(2S)-butan-2-yl]-12-(2-{(2S)-2-[(1R,2R)-1-methoxy-2-methyl-3-oxo-3-{[(1S)-2-phenyl-1-(1,3-thiazol-2-yl)ethyl]amino}propyl]pyrrolidin-1-yl}-2-oxoethyl)-5,5,10-trimethyl-3,6,9-trioxo-8-(propan-2-yl)-2,13-dioxa-4,7,10-triazatetradec-1-yl]phenyl}-N˜5˜-carbamoyl-L-ornithinamide] ({NHMe-CO}-KV[Cit][PABC][Aib]V[Dil][Dolaproine]-Doe) | 1.16 | 60% | 1.92 |  |  |  |
| CC[C@H](C)[C@@H]([C@@H](CC(=O)N1CCC[C@H]1[C@H](OC)[C@@H](C)C(=O)N[C@@H](Cc1ccccc1)c1nccs1)OC)N(C)C(=O)[C@@H](NC(=O)C(C)(C)NC(=O)OCc1ccc(NC(=O)[C@H](CCCNC(N)=O)NC(=O)[C@@H](NC(=O)[C@H](CCCCN)NC(=O)CNC)C(C)C)cc1)C(C)C [Example 27, N-methylglycyl-L-lysylvalyl-N-{4-[(8S,11S,12R)-11-[(2S)-butan-2-yl]-12-(2-{(2S)-2-[(1R,2R)-1-methoxy-2-methyl-3-oxo-3-{[(1S)-2-phenyl-1-(1,3-thiazol-2-yl)ethyl]amino}propyl]pyrrolidin-1-yl}-2-oxoethyl)-5,5,10-trimethyl-3,6,9-trioxo-8-(propan-2-yl)-2,13-dioxa-4,7,10-triazatetradec-1-yl]phenyl}-N˜5˜-carbamoyl-L-ornithinamide] (H-[Sar]KV[Cit][PABC][Aib]V[Dil][Dolaproine]-Doe) | 0.98 | 57% | 1.72 |  |  |  |
| CC[C@H](C)[C@@H]([C@@H](CC(=O)N1CCC[C@H]1[C@H](OC)[C@@H](C)C(=O)N[C@@H](Cc1ccccc1)c1nccs1)OC)N(C)C(=O)[C@@H](NC(=O)C(C)(C)NC(=O)OCc1ccc(NC(=O)[C@H](CCCNC(N)=O)NC(=O)[C@@H](NC(=O)[C@H](CCCCN)NC(=O)CN(C)C)C(C)C)cc1)C(C)C [Example 28, N,N-dimethylglycyl-L-lysylvalyl-N-{4-[(8S,11S,12R)-11-[(2S)-butan-2-yl]-12-(2-{(2S)-2-[(1R,2R)-1-methoxy-2-methyl-3-oxo-3-{[(1S)-2-phenyl-1-(1,3-thiazol-2-yl)ethyl]amino}propyl]pyrrolidin-1-yl}-2-oxoethyl)-5,5,10-trimethyl-3,6,9-trioxo-8-(propan-2-yl)-2,13-dioxa-4,7,10-triazatetradec-1-yl]phenyl}-N˜5˜-carbamoyl-L-ornithinamide] (Me2Gly-KV[Cit][PABC][Aib]V[Dil][Dolaproine]-Doe) | 0.07 | 4% | 1.83 |  |  |  |
